Source: patent publication US11274129B2, “Methods for protein tyrosine phosphorylation profiling with variant SH2 domains” (priority 2016, dated 2022)

System: mixture of 40 different pTyr-including peptides derived from ITRMs
Test: Capture of pTyr-including peptides from a mixture of ITRM peptides by QuadM-TrM tandem Superbinder versus TrM human Src SH2 Superbinder, scheduled PRM
Format: binding
Settings: for (QT-TrM)/mean: QuadM-TrM tandem vs TrM human Src SH2 Superbinder, PRM peak area
Excerpt: A QuadM-TrM tandem Superbinder (SEQ ID NO: 15) was produced in E. Coli by expressing a recombinant DNA that contained the gene encoding the QuadM human Src Superbinder (SEQ ID NO: 12) in tandem with the gene encoding the TrM human Src Superbinder (SEQ ID NO: 5). Equal molar amounts (200 pmole) of the QuadM-TrM tandem Superbinder and the TrM human Src SH2 Superbinder were used to capture pTyr-including peptides from a mixture of 40 different pTyr-including peptides (200 fmole each) derived from ITRMs. The isolated peptides were identified by scheduled PRM and quantified based on the corresponding MS peak area.
Shown are the relative preferences of each pTyr-including peptide for the QuadM-TrM tandem Superbinder versus the TrM human Src SH2 Superbinder, as defined by the value of “(QT-TrM)/Mean”, where “QT” represents the amount of pTyr-including peptide captured by the QuadM-TrM tandem Superbinder, “TrM” represents the amount of pTyr-including peptide captured by the TrM human Src SH2 Superbinder, and “Mean” represents the mean amount of pTyr-including peptide captured by both the QuadM-TrM tandem Superbinder and the TrM human Src SH2 Superbinder. Yellow and blue shaded boxes indicate hydrophobic and hydrophilic residues, respectively, at the pTyr+3 position in the sequence of the pTyr-including peptide.

B1: QuadM-TrM tandem Superbinder: QuadM human Src Superbinder in tandem with the TrM human Src Superbinder in a single protein (protein)
chain: DSIQAEEWYFGKITRRESERLLLNAENPRGTFLVRESETVKGAYALSVSDFDNAKGLNVRHYLIRKLDSGGFYIWSRTQFNSLQQLVAYYSKHADGLSHRLTTVSPTSKGGSGGSMDSIQAEEWYFGKITRRESERLLLNAENPRGTFLVRESETVKGAYALSVSDFDNAKGLNVRHYLIRKLDSGGFYITSRTQFNSLQQLVAYYSKHADGLSHRLTTVSPTSK
modifications: SH2 protein domain; QuadM-TrM human Src SH2 tandem domain
capture of pTyr-including peptides relative to the TrM human Src Superbinder (200 pmole Superbinder, 200 fmole each peptide): improved capture of pTyr-including peptides | (QT-TrM)/mean (peptide ARFGAP2_pY445 EVDAEpYEAR): 0.3 | (QT-TrM)/mean (peptide ARHGAP15_pY219 SSSTELLSHpYDSDIK): 0.3 | (QT-TrM)/mean (peptide ARHGEF6_pY644 KPSEEEpYVIR): 1.2 | (QT-TrM)/mean (peptide ARID1A_pY229 SAYPPPAPApYALSSPR): 0.3 | (QT-TrM)/mean (peptide ASNS_pY216 DVPLHALpYDNVEK): 0.3 | (QT-TrM)/mean (peptide C9orf78_pY277 ATDDpYHYEK): 0.6 | (QT-TrM)/mean (peptide CD3D_pY160 DDAQpYSHLGGNWAR): 0.3 | (QT-TrM)/mean (peptide CD3E_pY188 ERPPPVPNPDpYEPIR): 0.5 | (QT-TrM)/mean (peptide CD3E_pY199 DLpYSGLNQR): 0.0 | (QT-TrM)/mean (peptide CD3G_pY160 QTLLPNDQLpYQPLK): 0.2 | (QT-TrM)/mean (peptide CD3G_pY171 EDDQpYSHLQGNQLR): 0.0 | (QT-TrM)/mean (peptide CD28_pY206/209 HpYQPpYAPPR): 0.3 | (QT-TrM)/mean (peptide CD28_pY218 DFAApYR): 1.3 | (QT-TrM)/mean (peptide CD84_pY296 IpYDEILQSK): −0.1 | (QT-TrM)/mean (peptide CD84_pY316 EEPVNTVpYSEVQFADK): 0.1 | (QT-TrM)/mean (peptide CD247_pY72 SADAPAYQQGQNQLpYNELNLGR): 1.5 | (QT-TrM)/mean (peptide CD247_pY111 NPQEGLpYNELQK): 0.0 | (QT-TrM)/mean (peptide CD247_pY142 GHDGLpYQGLSTATK): 0.4 | (QT-TrM)/mean (peptide CLPTM1L_pY527 VNEFGESpYEEK): 0.3 | (QT-TrM)/mean (peptide DBN1_pY34 ALpYTYEDGSDDLK): 0.0 | (QT-TrM)/mean (peptide EXOC4_pY51 LEEApYEK): 0.5 | (QT-TrM)/mean (peptide HCLS1_pY175 AALGpYDYK): 0.3 | (QT-TrM)/mean (peptide ITK_pY512 FVLDDQpYTSSTGTK): 1.0 | (QT-TrM)/mean (peptide LAT_pY110 DSDGANSVASpYENEGASGlR): −0.2 | (QT-TrM)/mean (peptide LAT_pY220 EpYVNVSQELHPGAAK): 0.2 | (QT-TrM)/mean (peptide LCP1_pY300 AYpYHLLEQVAPK): 0.4 | (QT-TrM)/mean (peptide LIMD2_pY102 GNpYDEGFGR): 0.0 | (QT-TrM)/mean (peptide PJA2_pY28 AVWPKPAGGpYQTITGR): 0.4 | (QT-TrM)/mean (peptide PLCG2_pY1245 EFSVNENQLQLpYQEK): 1.2 | (QT-TrM)/mean (peptide PTPN7_pY149 AQSQEDGDpYINANYIR): 0.0 | (QT-TrM)/mean (peptide RBMX_pY335 SDLpYSSGR): 0.6 | (QT-TrM)/mean (peptide RFTN1_pY20 RPGNIpYSTLK): 0.3 | (QT-TrM)/mean (peptide SIT1_pY148 pYSEVVLDSEPK): −0.2 | (QT-TrM)/mean (peptide SPEN_pY1399 ASALpYESSR): −0.1 | (QT-TrM)/mean (peptide THUMPD1_pY22 AQpYVLAK): −0.2 | (QT-TrM)/mean (peptide TLR7_pY1041 NALATDNHVApYSQVFK): 0.1 | (QT-TrM)/mean (peptide TRAF3IP3_pY178/179 GQQIpYpYHK): 0.9 | (QT-TrM)/mean (peptide TRAF3IP3_pY179 GQQIYpYHK): 1.5 | (QT-TrM)/mean (peptide ZAP70_pY164 MPWpYHSSLTR): 0.2 | (QT-TrM)/mean (peptide ZAP70_pY292 IDTLNSDGpYTPEPAR): 0.3
